Data taken from publication doi:10.1101/475152.

Target: Mlh1-Pms1 DLDMMR (Saccharomyces cerevisiae (yeast; …, UniProt P38920;P14242 1-347+374-769;1-436+488-873, internal_change;internal_change)
Test: filter binding

B1: 49-mer homoduplex AO3142/AO3144 (dsDNA)
DNA 1: GGGTCAACGTGGGCAAAGATGTCCTAGCAAGTCAGAATTCGGTAGCGTG
DNA 2: CACGCTACCGAATTCTGACTTGCTAGGACATCTTTGCCCACGTTGACCC
binding result: binds
